From patent publication US20180208648A1 (SCHOLAR ROCK, published 2018)
Residue numbers refer to the chain shown, from its start. Each block holds one binder with its values, some of them ahead of it.

Key:
[1] = biological target: T1, murine proGDF11 (mouse, UniProt Q9Z1W4 25-405, biotinylated, site not stated); experiment: BLI (ForteBio Octet)
T1 construct: also called mu proGDF11
T1 sequence: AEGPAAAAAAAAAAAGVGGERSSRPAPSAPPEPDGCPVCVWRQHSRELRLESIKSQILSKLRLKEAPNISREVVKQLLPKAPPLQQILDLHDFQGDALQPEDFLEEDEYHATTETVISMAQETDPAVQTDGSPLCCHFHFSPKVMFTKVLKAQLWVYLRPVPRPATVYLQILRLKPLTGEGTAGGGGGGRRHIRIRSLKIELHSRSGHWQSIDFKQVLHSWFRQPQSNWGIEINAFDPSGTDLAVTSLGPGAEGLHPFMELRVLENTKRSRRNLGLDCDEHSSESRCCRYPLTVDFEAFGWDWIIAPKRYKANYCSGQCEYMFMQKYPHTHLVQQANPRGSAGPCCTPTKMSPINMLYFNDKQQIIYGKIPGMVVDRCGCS

[2] = biological target: T2, human proGDF11 (human, UniProt O95390 25-407, biotinylated (NHS-PEG4-Biotin), site not stated); experiment: cell-based or functional assay
T2 sequence: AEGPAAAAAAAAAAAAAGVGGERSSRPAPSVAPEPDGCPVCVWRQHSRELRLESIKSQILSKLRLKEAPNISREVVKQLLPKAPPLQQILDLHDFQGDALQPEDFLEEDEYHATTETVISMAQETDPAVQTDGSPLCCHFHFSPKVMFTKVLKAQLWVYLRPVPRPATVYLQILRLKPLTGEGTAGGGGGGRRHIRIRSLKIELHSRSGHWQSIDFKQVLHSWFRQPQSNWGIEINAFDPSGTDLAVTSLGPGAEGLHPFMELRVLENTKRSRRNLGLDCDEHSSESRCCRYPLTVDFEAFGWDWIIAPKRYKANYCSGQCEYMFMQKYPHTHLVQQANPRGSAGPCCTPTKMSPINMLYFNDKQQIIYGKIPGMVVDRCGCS

[3] = biological target: T1, murine proGDF11; experiment: cell-based or functional assay
[4] = biological target: T3, human latent GDF8 (human, UniProt O14793 24-375, biotinylated (immobilized on streptavidin biosensors), site not stated); experiment: BLI (ForteBio Octet QKe), antigen on streptavidin biosensor, antibody in solution
T3 construct: also called human latent Myostatin
T3 sequence: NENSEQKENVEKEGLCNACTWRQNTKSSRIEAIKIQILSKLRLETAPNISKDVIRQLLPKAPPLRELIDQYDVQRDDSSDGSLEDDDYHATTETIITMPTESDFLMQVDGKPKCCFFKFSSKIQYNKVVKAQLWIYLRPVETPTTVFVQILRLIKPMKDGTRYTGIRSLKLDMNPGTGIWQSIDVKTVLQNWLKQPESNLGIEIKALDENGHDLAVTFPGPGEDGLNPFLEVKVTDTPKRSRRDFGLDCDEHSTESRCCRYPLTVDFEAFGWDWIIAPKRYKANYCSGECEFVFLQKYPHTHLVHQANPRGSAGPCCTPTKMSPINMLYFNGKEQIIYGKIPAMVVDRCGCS

[5] = biological target: T4, human proActivin A (human, UniProt P08476 21-426, biotinylated (immobilized on streptavidin biosensors), site not stated); experiment: as above
T4 construct: also called human Activin A; Inhibin-beta A pro-protein
T4 sequence: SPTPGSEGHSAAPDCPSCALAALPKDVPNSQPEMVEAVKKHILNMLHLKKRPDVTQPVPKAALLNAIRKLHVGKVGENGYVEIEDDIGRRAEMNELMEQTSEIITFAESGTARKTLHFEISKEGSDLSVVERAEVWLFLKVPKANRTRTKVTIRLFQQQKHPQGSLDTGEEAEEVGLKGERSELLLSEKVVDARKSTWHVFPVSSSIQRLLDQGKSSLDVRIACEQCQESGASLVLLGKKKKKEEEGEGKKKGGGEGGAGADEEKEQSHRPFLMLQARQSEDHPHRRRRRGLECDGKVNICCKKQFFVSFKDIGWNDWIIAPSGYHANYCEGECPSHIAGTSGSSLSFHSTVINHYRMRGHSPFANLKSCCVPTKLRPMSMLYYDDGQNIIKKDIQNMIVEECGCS

Kd [1]: 1.73 nM | Human proGDF11 % Inhibition (proGDF11 activation assay, CAGA luciferase reporter in 293T cells) [2]: 100% | Murine proGDF11 % inhibition (proGDF11 activation assay, CAGA luciferase reporter in 293T cells) [3]: 95% | binding result [4]: no binding (tested: 50 µg/mL) | binding result [5]: no binding (tested: 50 µg/mL)
B1: GDF11 Inh-2 (antibody, V domains shown)
VH: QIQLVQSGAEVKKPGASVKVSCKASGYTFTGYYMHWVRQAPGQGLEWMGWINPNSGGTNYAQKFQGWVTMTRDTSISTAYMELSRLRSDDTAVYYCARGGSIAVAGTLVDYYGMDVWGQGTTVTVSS
VL: DIQMTQSPSSLSASVGDRVTITCQASQDISNYLNWYQQKPGKAPKLLIYDASNLETGVPSRFSGSGSGTDFTLTISSLQPEDVATYYCQKYSTAPLTFGGGTKVEIKR
notes: also called Clone GDF11 Inh-2

Human proGDF11 % Inhibition (proGDF11 activation assay, CAGA luciferase reporter in 293T cells) [2]: 94% | Murine proGDF11 % inhibition (proGDF11 activation assay, CAGA luciferase reporter in 293T cells) [3]: 87% | binding result [4]: no binding (tested: 50 µg/mL) | binding result [5]: no binding (tested: 50 µg/mL)
B2: GDF11 Inh-4 (antibody, V domains shown)
VH: QVQLVQSGAEVKKPGASVKVSCKASGYTFTSYGISWVRQAPGQGLEWMGWISAYNGNTNYAQKLQGRVTMTTDTSTSTAYMELRSLRSDDTAVYYCARTPPLWFGEYGAFDIWGQGAMVTVSS
VL: B1 VL with E81D, V83F, K90Q, Y91S, S92Y, A94T, L96I, G100Q, K103R, V104L
notes: also called Clone GDF11 Inh-4
